Experimental data taken from the supplement of paper PMC10567573.

Assay: protein stability index of a GFP-peptide fusion (GPS, HEK-293T) (PSI 1-6); higher = more stable
Conditions: parent: NP_002788.1; c terminus: native
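Note: lentivirally expressed fusion library, cells FACS-sorted into six equal-sized GFP/DsRed ratio bins, PSI computed from sequencing read fractions per bin weighted by bin number.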

Q: With DGWIRVSSDNVADLHEKYSGSTPD [PSMB5 addD] as the protein, how does the protein stability index read?
A: 4.37

Q: Which protein stability index does the source give for DGWIRVSSDNVADLHEKYSGSTPM [PSMB5 addM] here?
A: 2.89

Same assay, conditions: parent: NP_006221.1; c terminus: native

Q: With CQPISFSGFGAEDDDLGGLGLGPM [POLD2 addM] as the protein, how does the protein stability index read?
A: 2.38

Q: With CQPISFSGFGAEDDDLGGLGLGPD [POLD2 addD] as the protein, how does the protein stability index read?
A: 2.2

Same assay, conditions: parent: NP_015628.1; c terminus: native

Q: Which protein stability index does the source give for EQRNSRWNTVLRAVKAKTHHLEPM [TRPA1 addM] here?
A: 4.79

Q: Which protein stability index does the source give for EQRNSRWNTVLRAVKAKTHHLEPD [TRPA1 addD] here?
A: 3.91

Same assay, conditions: parent: NP_009172.2; c terminus: native

Q: For LPALFTDLYSQEITAEEAREALPM [SNF8 addM], which protein stability index is on record?
A: 3.04

Q: With LPALFTDLYSQEITAEEAREALPD [SNF8 addD] as the protein, how does the protein stability index read?
A: 5.09

Same assay, conditions: parent: NP_116010.1; c terminus: native

Q: With HSLRAVSTDPPHHDHHDEFCLMPM [BEX2 addM] as the protein, how does the protein stability index read?
A: 3.52

Q: For HSLRAVSTDPPHHDHHDEFCLMPD [BEX2 addD], which protein stability index is on record?
A: 4.42
